PMC1065253

Assays:
SeqA(E5,9K) = target: T1, SeqA(E5,9K) (Escherichia coli, UniProt P0AFY8 1-181, E5K;E9K); experiment: EMSA
T1 sequence: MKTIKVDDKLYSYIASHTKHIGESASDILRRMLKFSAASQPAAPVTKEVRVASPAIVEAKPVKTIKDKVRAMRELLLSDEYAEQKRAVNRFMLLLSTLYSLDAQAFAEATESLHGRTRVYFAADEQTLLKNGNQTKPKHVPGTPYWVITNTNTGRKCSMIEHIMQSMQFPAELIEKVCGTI

SeqA(D7K) = target: T2, SeqA(D7K) (Escherichia coli, UniProt P0AFY8 1-181, D7K); experiment: EMSA
T2 sequence: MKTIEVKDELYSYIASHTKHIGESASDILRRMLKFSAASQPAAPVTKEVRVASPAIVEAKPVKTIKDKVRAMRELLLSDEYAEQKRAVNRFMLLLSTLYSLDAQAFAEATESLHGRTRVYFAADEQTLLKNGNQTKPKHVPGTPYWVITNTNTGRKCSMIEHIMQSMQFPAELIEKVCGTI

SeqA [1] = target: T3, SeqA (Escherichia coli, UniProt P0AFY8 1-181); experiment: AFM
T3 sequence: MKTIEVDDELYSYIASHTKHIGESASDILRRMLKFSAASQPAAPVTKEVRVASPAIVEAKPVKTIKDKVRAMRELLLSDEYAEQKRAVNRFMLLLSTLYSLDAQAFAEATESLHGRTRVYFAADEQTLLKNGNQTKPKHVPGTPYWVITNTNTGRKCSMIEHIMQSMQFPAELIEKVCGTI

SeqA(D8K) = target: T4, SeqA(D8K) (Escherichia coli, UniProt P0AFY8 1-181, D8K); experiment: EMSA
T4 sequence: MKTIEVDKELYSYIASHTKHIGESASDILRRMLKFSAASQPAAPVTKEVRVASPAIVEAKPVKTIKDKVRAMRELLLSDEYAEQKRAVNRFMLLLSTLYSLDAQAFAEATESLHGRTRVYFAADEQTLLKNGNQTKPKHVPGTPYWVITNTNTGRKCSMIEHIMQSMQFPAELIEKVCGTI

SeqA(E9K) = target: T5, SeqA(E9K) (Escherichia coli, UniProt P0AFY8 1-181, E9K); experiment: EMSA
T5 sequence: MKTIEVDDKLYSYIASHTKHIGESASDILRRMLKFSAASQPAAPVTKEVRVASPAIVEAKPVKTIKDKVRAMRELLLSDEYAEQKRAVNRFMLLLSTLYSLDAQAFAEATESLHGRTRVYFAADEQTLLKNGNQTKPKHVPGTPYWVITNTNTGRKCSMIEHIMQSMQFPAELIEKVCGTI

SeqA(E5K) = target: T6, SeqA(E5K) (Escherichia coli, UniProt P0AFY8 1-181, E5K); experiment: EMSA
T6 sequence: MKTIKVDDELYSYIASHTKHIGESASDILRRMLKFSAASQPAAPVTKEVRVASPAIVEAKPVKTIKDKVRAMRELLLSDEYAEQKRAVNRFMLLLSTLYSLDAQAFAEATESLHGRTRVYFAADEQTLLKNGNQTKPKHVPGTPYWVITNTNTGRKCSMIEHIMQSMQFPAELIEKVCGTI

SeqA [2] = target: T3, SeqA; experiment: EMSA
SeqA(T18G) = target: T7, SeqA(T18G) (Escherichia coli, UniProt P0AFY8 1-181, T18G); experiment: EMSA
T7 sequence: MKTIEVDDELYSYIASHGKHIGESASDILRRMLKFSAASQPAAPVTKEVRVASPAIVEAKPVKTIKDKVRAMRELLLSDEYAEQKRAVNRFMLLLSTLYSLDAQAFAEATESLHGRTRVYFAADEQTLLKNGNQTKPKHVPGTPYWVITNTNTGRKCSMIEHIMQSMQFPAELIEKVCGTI

SeqA [3] = target: T3, SeqA; experiment: AFM; remark: listed apart in the source

B1: 75 bp, two hemi-sites, 21 bp spacing (dsDNA)
DNA 1: CTGGGTATTAAAAAGAAGATCTATTTATGTTCAGTTCTGATCTGTTCTGTTCTCTTATTAGGCTCGCACTGCCCT
DNA 2: AGGGCAGTGCGAGCCTAATAAGAGAACAGAACAGATCAGAACTGAACATAAATAGATCTTCTTTTTAATACCCAG
modifications: hemi-methylated GATC (N6-methyladenine on one strand; which strand not stated)
Question: Does B1 bind (SeqA(E5,9K))?
Answer: no binding

Question: Does B1 bind (SeqA(D7K))?
Answer: no binding

Question: Does B1 bind (SeqA [1])?
Answer: binds

Question: Does B1 bind (SeqA(D8K))?
Answer: binds

Question: Does B1 bind (SeqA(E9K))?
Answer: binds

Question: Does B1 bind (SeqA(E5K))?
Answer: binds

B2: 75 bp, two hemi-sites, 16 bp spacing (Fig 3A) (dsDNA)
DNA 1: CTGGGTATTAAAAAGAAGATCTATTTATTTAGAGATCTGTTCTATTGTGATCTCTTATTAGGATCGCACTGCCCT
DNA 2: AGGGCAGTGCGATCCTAATAAGAGATCACAATAGAACAGATCTCTAAATAAATAGATCTTCTTTTTAATACCCAG
modifications: hemi-methylated GATC (N6-methyladenine on one strand; which strand not stated)
Question: What does the source list for B2?
Answer: binding result (SeqA [2]): binds; binding result (SeqA(T18G)): binds

B3: 75 bp, two hemi-sites, 31 bp spacing (dsDNA)
DNA 1: CTGGGTATTAAAAAGAAGATCTATTTATGTTCAGTTCTGTTCTGTTCTGATCTCTTATTAGGCTCGCACTGCCCT
DNA 2: AGGGCAGTGCGAGCCTAATAAGAGATCAGAACAGAACAGAACTGAACATAAATAGATCTTCTTTTTAATACCCAG
modifications: hemi-methylated GATC (N6-methyladenine on one strand; which strand not stated)
Question: Does B3 bind (SeqA [3])?
Answer: binds

B4: 75 bp, two hemi-sites, 11 bp spacing (dsDNA)
DNA 1: CTGGGTATTAAAAAGAAGATCTATTTATGATCAGTTCTGTTCTGTTCTGTTCTCTTATTAGGCTCGCACTGCCCT
DNA 2: AGGGCAGTGCGAGCCTAATAAGAGAACAGAACAGAACAGAACTGATCATAAATAGATCTTCTTTTTAATACCCAG
modifications: hemi-methylated GATC (N6-methyladenine on one strand; which strand not stated)
Question: Does B4 bind (SeqA [3])?
Answer: binds

B5: 75 bp, two hemi-sites, 16 bp spacing (Fig 2E) (dsDNA)
DNA 1: CTGGGTATTAAAAAGAAGATCTATTTATGTTCAGATCTGTTCTGTTCTGTTCTCTTATTAGGCTCGCACTGCCCT
DNA 2: AGGGCAGTGCGAGCCTAATAAGAGAACAGAACAGAACAGATCTGAACATAAATAGATCTTCTTTTTAATACCCAG
modifications: hemi-methylated GATC (N6-methyladenine on one strand; which strand not stated)
Question: Does B5 bind (SeqA [3])?
Answer: binds
